From the RNAGym collection of RNA variant scans (doi:10.1073/pnas.2313332121)

B1: TPR t1 (parent)
chain: GACCAAUCUGCCCUCAGAGCUCGAGAACAUCUUCGGAUGCAGAGGAGGCAGGCUUCGGUGGCGCGAUAGCGCCAACGUCCUCAACCUCCAAUGCAUCCCACCACAUGAUGAUGCCUGAAGAGCCUUGGUUUUUUG

Variants of: B1
Experiment: polymerase ribozyme fitness, log enrichment relative to wild type (log ratio); higher = more active; in vitro selection for triplet polymerase activity
Procedure, shortened: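 Genotype fitness is the logarithm of its enrichment divided by wild-type enrichment, using inverse-variance-weighted averages of replicates. That logarithm is base 2. Enrichment was measured by Illumina sequencing of input and output libraries from one triplicate in vitro selection round, with frozen incubation at −7 °C, on PCR-built, transcribed mutant libraries of each subunit of a heterodimeric triplet polymerase ribozyme, retaining genotypes with ≥10 input reads and ≥1 read per output.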

Variant | polymerase ribozyme fitness (log ratio)
G52A G63U U129A | -3.94
G51U C101A | -4.55
G52A G60A C79A C115A U132A | -0.536
G52U C62G C89G U109C A111U | -6.22
G52A C72G A95C | -2
G51C | -3.7
G51U | -3.23
G52C G63C C85U C104U | -3.03
G52A A111C | 0.197
G52U G63A G93A | -1.45
G51U G60U C79G | -1.64
G51A G57U U81C C101U | -2.52
G52U A105G A121C | -2.06
G51U C79G C94A C124A | -1.56
G52C C73U G110U | -2.38
G52C C88A | -0.833
G52U C64U U132A | -1.1
G52C A84G U87C A111G | -2.78
C53A C89U C115A | -0.188
G51U G61U G127A | -4.92
C53A A66U | -1.07
G52A U54A G69U G77U C80G A83C A119U | -3.11
G51C G52A U81C | -5.02
G52C C53A C97U C101U | -1.86

Variant | polymerase ribozyme fitness (log ratio)
C53A C72U | -0.465
C53A C72A | -1.56
G52A C62U C79G | -0.394
G51A G69U C88U G93A U109G U133C | -4.55
G51U U112A | -3.68
G51C G110C | -6.54
G51U G58C G113C | -5.43
G52A C102A | -1.79
G52A G77U G117U | -4.34
G51U G61U | -3.14
G52A U92A C98U A119U C124A | -3.81
G51C G135U | -4.93
G52C C56A C102U U133A | -2.78
G52C C70U C72U G117U | -4.23
C53A C79U C86U | -0.479
G52A C53U | -0.621
G52A C53A | -0.436
G52C C115A | -1.03
G52A C85G | -1.03
C53A C56U U78C A118U G120C | 0.115
G51U G57A G65U A121U | -7.73
G51C C73G C114A | -6.6
G51U A68C A91C G110C | -7.47
G51U G61U C80A G127U | -1.14

Variant | polymerase ribozyme fitness (log ratio)
C53A C72G U92C U126A U132A | -4.63
G52U A121C G127A | -0.484
G52A C73G C85A | -1.93
G52U C73U C104G C115A | -6.56
G52U C115A | -0.782
G51A U130A | -3.19
G51U G61C U133G | -2.81
G51A G71U G77U | -3.39
G52C C56G G71U C124U | -3.19
C53A C62A U125C | -6.14
G52A C102U G120A | -1.56
C53A C80U U106A | -5.29
G52A G57A U129A | -2.51
G52C U54G G69A U87C A100U | -6.57
G52C U59G A118G | -0.37
C53A C56A G69U G127U | -1.27
G51C G63U A84U U112G U132A | -5.83
G52A C79U G120U | -0.265
G52U U96A | -2.01
G51A U87C U131A | -2.41
G52A C79A | -0.667
G52A C79U | -0.581
G52A G69C C104U G113C | -4.79
G51U C62U | -3.78

Variant | polymerase ribozyme fitness (log ratio)
G51U G60U C79G C85A C114U G120U G127U | -4.96
G52U C73U A83U G120A C124U | -0.229
G51C C56U C115U U131A | -4.93
G51A G57U | -1.5
C53A C82G A118G | -0.931
G52A C89G U129G | -2.09
G51C C53G C94G | -5.44
G52C C72U C73G | -1.01
G52U C72A C85A | -1.3
G52A A74G C79G U96G | -0.912
G51U C104A U133G | -5.02
G52C G61C | -3.04
G52C G93C | -1.82
G51U C73G | -3.52
G52U C56U A84U | -1.37
C53A C89U U126C | -1.37
G51A C124A | -1.48
C53A C62U C97U G120C | 0.732
C53A C56G G63C U106C | -0.653
G52A C98A | -4.54
G52U A105C | -3.57
G52A G57A | -1.07
G52U C79A | -1.05
G52U C72A C86A G113A G122C | -4.85

Variant | polymerase ribozyme fitness (log ratio)
G51U C56G | -5.36
G51U C56U | -2.11
G52A G71C A95C G113C | -6.98
C53A C73A U116A | -3.87
G52C C94A | -0.653
G51U C123U | -2.12
G52A C114G | -3.02
G51A C123A | -1.89
G51A C123G | -0.157
G51C G60A U112G G117C | -7.03
G52U U112G | -0.37
G52U U106C | -1.2
C53A C72U C85U G122A | -0.784
G51U G58C C86A C104U | -3.76
G52U C53U C56U G93U U109G | -6.55
G51A C99U C124A | -5.8
G51U G69U U87G | -0.427
G52U C72U U78C | -0.804
G51A G61U | -2.94
G51A G61C | -3.7
G52U C70G C72U | -3.48
G52C C123G U133G | 0.949
G51U U130A | -3.79
G52C C70A G117U G120U | -4.71

Variant | polymerase ribozyme fitness (log ratio)
G51U C53U U112A A119G | -2.63
G51U C124G | -1.68
G51U C124U | -2.88
G52A C104U G113C | -2.55
G52A G77U G93A G122U | -2.45
G52C A100C C114A | -4.06
G52U A111C | -2.18
G52U A111U | -3.93
G52C G69C G117C | -6.05
G52A C94A | -1.72
G52C C56A G57A C89U A91C C94U | -3.35
G52U G110A | -1.73
G52C A83C A118G U131A | -0.732
G51C G113C | -5.71
G52U C56A C102A | -2.74
G52U G117U | -3.39
G52U G117C | -5.35
G52U C82U G110U | -2.9
G52U U54G | -1.03
G52C G117A | -1.64
G51C U112C | -1.34
G52U U87A | -1.25
G51A G57C U112G | -1.7
G52U G61C | 0.0885

Variant | polymerase ribozyme fitness (log ratio)
G52C U96C G110U | -1.98
G51C G60A | -3.46
G52A G61A C79G | -0.673
G52U C56U U116A | -4.17
G51U G71A | -5.06
G51A G77C A95C | -4.86
G51A G61U G128C | -5
C53A C72U U87A G107U | -4.92
G52A C104U | 0.136
G51A G52A U112A U116C G128A | -6.33
G52A A84U U131G | -0.974
G51C U78C A121C G122U C124A | -4.73
G51A G71C U112C | -2.08
G51U A84C C88A A121C | -1.74
G52A C123A | -0.148
G51A G61A U125A | -2.21
C53A C79A G117U | -4.98
G52C U55G A83C C115U A118G | -2.39
G51A C89G | -4.83
G52C G60A U81A A83U | -5.15
G51U C64G U112G | -6.95
G51U C73A U106A C124A U126A U129A U131A | -2.8
G51U C56A C62U U92A C101U | -6.34
